According to article PMC3040281 (Biochemistry, 2011):

T1: YghU (Escherichia coli, UniProt Q46845)
T1 sequence (Q46845 1-288): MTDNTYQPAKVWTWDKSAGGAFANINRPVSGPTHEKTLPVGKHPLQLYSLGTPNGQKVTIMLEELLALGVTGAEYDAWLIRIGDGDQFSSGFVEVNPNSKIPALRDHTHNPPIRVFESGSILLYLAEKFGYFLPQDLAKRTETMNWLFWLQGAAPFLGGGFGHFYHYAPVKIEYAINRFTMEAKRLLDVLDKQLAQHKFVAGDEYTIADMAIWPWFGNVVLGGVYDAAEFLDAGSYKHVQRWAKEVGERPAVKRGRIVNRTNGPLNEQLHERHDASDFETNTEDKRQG

B1: YghU (enzyme, Escherichia coli K-12, UniProt Q46845 1-288, looked up)
chain: T1 sequence (Q46845 1-288)

What was measured:
YghU = target: T1, YghU; test: intrinsic protein fluorescence titration, single-site fit; type: binding
purified protein [1] = substrate: CC(C)(OO)c1ccccc1; test: purified protein; type: biochemical, Escherichia coli; conditions: GSH co-substrate, 100 mM KH2PO4, pH 7.0, 25 °C
purified protein [2] = substrate: CCCCC[C@@H](/C=C/C=C\C/C=C\C/C=C\CCCC(=O)O)OO; test: purified protein; type: biochemical, Escherichia coli; conditions: 3 mM GSH, 100 mM KH2PO4, pH 7.0, 0.005% BSA, 25 °C
purified protein [3] = substrate: CCCCC[C@@H](/C=C/C=C\CCCCCCCC(=O)O)OO; test: purified protein; type: biochemical, Escherichia coli; conditions: GSH co-substrate, 100 mM KH2PO4, pH 7.0, 25 °C
SEC = target: the molecule itself; test: SEC

Row | Kd (YghU) [µM] | Molecule | Km (purified protein [1]) [µM] | kcat (purified protein [1]) [s⁻¹] | kcat/Km (purified protein [1]) [M⁻¹ s⁻¹] | Km (purified protein [2]) [µM] | kcat (purified protein [2]) [s⁻¹] | kcat/Km (purified protein [2]) [M⁻¹ s⁻¹] | Km (purified protein [3]) [µM] | kcat (purified protein [3]) [s⁻¹] | kcat/Km (purified protein [3]) [M⁻¹ s⁻¹] | stoichiometry N (SEC)
1 | 1000 ± 100 | NCCCCNCCCNC(=O)CNC(=O)[C@H](CS)NC(=O)CC[C@H](N)C(=O)O [GspSH] |  |  |  |  |  |  |  |  |  | 
2 |  | B1 | 16 ± 2 | 0.05 ± 0.001 | 3500 ± 400 | 28 ± 4 | 0.096 ± 0.004 | 3400 ± 1500 | 130 ± 30 | 0.19 ± 0.02 | 1500 ± 400 | 2
